The data set concerns the molecule itself. Briefly: SEC; mixtures of the purified proteins; details in the Supporting Information. For orientation: In gel filtration, larger molecules generally elute earlier.

Numbering of substitutions follows the chain as printed. In names and notes the source's numbering stands.

B1: PanD(K119A) (enzyme, E. coli, UniProt P0A790 1-126, looked up)
chain: MIRTMLQGKLHRVKVTHADLHYEGSCAIDQDFLDAAGILENEAIDIWNVTNGKRFSTYAIAAERGSRIISVNGAAAHCASVGDIVIIASFVTMPDEEARTWRPNVAYFEGDNEMKRTAAAIPVQVA
As a reminder, the stoichiometry N is the number of molecules, sites or subunits per partner or assembly. As for B1, the “stoichiometry N” value is 4.

B2: aspartate α-decarboxylase (PanD), wild type (from pET28apanD, for SEC) (enzyme, E. coli, UniProt P0A790 1-126, looked up)
chain: B1 chain with A119K
Consider B2, for which the “stoichiometry N” value is 4.
